{"source": "paper PMC4995099", "about": "“Drosophila Nanos acts as a molecular clamp that modulates the RNA-binding and repression activities of Pumilio”", "molecules": {"B1": {"name": "Halo-tagged, full-length Nos protein (NZC) (natural protein)", "chain": "MFRSNLEGSGAAADNFSAFHARGGLNILGLQDMYLDTSGANSSATLSPPITPVTPDPSTSAQSTHFPFLADSAATANSLLMQRQYHYHLLLQQQQQLAMAQHQLALAASAAAASASHQQTDEIARSLKIFAQVTTGAAENAAGSMQDVMQEFATNGYASDDLGRMSYGSAPPQVQMPPQQQHQQQQGLHLPLGRNPAQLQTNGGNLMPIPLATHWLNNYREHLNNVWRNMSYIPAAPNTMGLQAQTAATVSTNLGVGMGLGLPVQGEQLRGASNSSNNNNNNNKVYKRYNSKAKEISRHCVFCENNNEPEAVINSHSVRDNFNRVLCPKLRTYVCPICGASGDSAHTIKYCPKKPIITMEDAIKAESFRLAKSSYYKQQMKV"}, "B2": {"name": "Halo-Nos Δ376–382 (aa1-375 + 383–401) (natural protein)", "chain": "MFRSNLEGSGAAADNFSAFHARGGLNILGLQDMYLDTSGANSSATLSPPITPVTPDPSTSAQSTHFPFLADSAATANSLLMQRQYHYHLLLQQQQQLAMAQHQLALAASAAAASASHQQTDEIARSLKIFAQVTTGAAENAAGSMQDVMQEFATNGYASDDLGRMSYGSAPPQVQMPPQQQHQQQQGLHLPLGRNPAQLQTNGGNLMPIPLATHWLNNYREHLNNVWRNMSYIPAAPNTMGLQAQTAATVSTNLGVGMGLGLPVQGEQLRGASNSSNNNNNNNKVYKRYNSKAKEISRHCVFCENNNEPEAVINSHSVRDNFNRVLCPKLRTYVCPICGASGDSAHTIKYCPKKPIKAESFRLAKSSYYKQQMKV"}, "B3": {"name": "Halo-Nos Δ383–393 (aa1-382 + 394–401) (natural protein)", "chain": "MFRSNLEGSGAAADNFSAFHARGGLNILGLQDMYLDTSGANSSATLSPPITPVTPDPSTSAQSTHFPFLADSAATANSLLMQRQYHYHLLLQQQQQLAMAQHQLALAASAAAASASHQQTDEIARSLKIFAQVTTGAAENAAGSMQDVMQEFATNGYASDDLGRMSYGSAPPQVQMPPQQQHQQQQGLHLPLGRNPAQLQTNGGNLMPIPLATHWLNNYREHLNNVWRNMSYIPAAPNTMGLQAQTAATVSTNLGVGMGLGLPVQGEQLRGASNSSNNNNNNNKVYKRYNSKAKEISRHCVFCENNNEPEAVINSHSVRDNFNRVLCPKLRTYVCPICGASGDSAHTIKYCPKKPIITMEDAIYYKQQMKV"}}, "data": [{"biological_target": "T1, Pum PUM-HD WT (EMSA) (UniProt P25822 1091-1426)", "T1 sequence": "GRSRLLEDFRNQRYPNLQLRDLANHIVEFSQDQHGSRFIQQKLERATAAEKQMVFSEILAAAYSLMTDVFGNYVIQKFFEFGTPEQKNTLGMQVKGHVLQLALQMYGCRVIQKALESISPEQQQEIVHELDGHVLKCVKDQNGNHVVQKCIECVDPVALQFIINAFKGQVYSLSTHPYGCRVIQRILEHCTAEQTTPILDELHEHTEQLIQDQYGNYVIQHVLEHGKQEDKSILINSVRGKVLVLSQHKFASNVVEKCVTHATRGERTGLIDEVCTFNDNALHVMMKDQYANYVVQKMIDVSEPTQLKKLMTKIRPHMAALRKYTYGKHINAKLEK", "experiment": "EMSA; EMSA: 50 mM Tris-HCl pH 7.6, 150 mM NaCl, 2 mM DTT, 2 ug/mL BSA, 0.01% Igepal CA-630, 0.02% bromophenol blue, 20% glycerol, 3 h at 4 C; 1 nM Cy5 RNA or 0.3 nM 32P RNA", "conditions": "protein: recombinant; tags: N-terminal 3xFLAG; Halo-tag removed by TEV", "values": [{"molecule": "AAACUGUACAUAAGCC (ssRNA)", "note": "[hb NRE2 -1C RNA]", "binding result": "binds"}, {"molecule": "AACUUGUACAUAAGCC (ssRNA)", "note": "[hb NRE2 -2C RNA]", "binding result": "binds"}]}, {"biological_target": "T2, Drosophila Pum RNA-binding domain (amino acids 1091–1426), crystallisation construct (Drosophila melanogaster) (UniProt P25822)", "T2 sequence": "T1 sequence", "experiment": "not given", "conditions": "not given", "units": {"percent repression of the RnLuc WT hb 3´UTR reporter in D.mel-2 cells (endogenous Pum), against Halo-tag alone": "%"}, "values": [{"molecule": "Halo-Nos I382A (full-length) (natural protein)", "percent repression of the RnLuc WT hb 3´UTR reporter in D.mel-2 cells (endogenous Pum), against Halo-tag alone": 60}, {"molecule": "Halo-Nos M378A (full-length) (natural protein)", "percent repression of the RnLuc WT hb 3´UTR reporter in D.mel-2 cells (endogenous Pum), against Halo-tag alone": 29}, {"molecule": "Halo-Nos NZ (aa1-373) (domain or fragment)", "percent repression of the RnLuc WT hb 3´UTR reporter in D.mel-2 cells (endogenous Pum), against Halo-tag alone": 14}, {"molecule": "Halo-Nos I376A (full-length) (natural protein)", "percent repression of the RnLuc WT hb 3´UTR reporter in D.mel-2 cells (endogenous Pum), against Halo-tag alone": 46}, {"molecule": "B1", "percent repression of the RnLuc WT hb 3´UTR reporter in D.mel-2 cells (endogenous Pum), against Halo-tag alone": 70}, {"molecule": "B2", "percent repression of the RnLuc WT hb 3´UTR reporter in D.mel-2 cells (endogenous Pum), against Halo-tag alone": 27}, {"molecule": "B3", "percent repression of the RnLuc WT hb 3´UTR reporter in D.mel-2 cells (endogenous Pum), against Halo-tag alone": 43}]}]}
